This assay has as its target human PD-1 on CHO cells (human) (UniProt Q15116). The experiment in a line: flow cytometry, CHO cells with human PD-1 incubated with antibody 100 nM, then PD-L2-FITC; competitor PD-L2-FITC. On the technique in general: In flow cytometry, cells or beads pass a laser one at a time.

MFI (PD-L2-FITC) in presence of the antibody data for one substance are collected here from patent US20190276534A1.

Chain of human PD-1 on CHO cells (human) (Q15116 25-288 limits assumed): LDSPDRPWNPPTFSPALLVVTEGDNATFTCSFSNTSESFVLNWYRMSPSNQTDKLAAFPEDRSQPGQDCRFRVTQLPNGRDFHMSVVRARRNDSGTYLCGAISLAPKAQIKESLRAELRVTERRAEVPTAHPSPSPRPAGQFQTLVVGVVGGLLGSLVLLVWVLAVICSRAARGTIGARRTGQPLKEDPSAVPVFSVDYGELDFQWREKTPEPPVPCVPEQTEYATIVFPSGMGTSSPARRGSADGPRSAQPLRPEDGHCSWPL

Regarding control IgG (antibody), the MFI (PD-L2-FITC) in presence of the antibody turned out to be 183000.
